# Data reported in patent publication US20110189292A1 (ALLERGAN, published 2011).
# B1: 23RGD peptide (HOOC-GRGDIPASSKG4SRL6R-NH2) (peptide)
# peptide: GRGDIPASSKGGGGSRLLLLLLR
# modifications: not fully specified; -NH2 at the Arg end as printed (HOOC-Gly-...-Arg-NH2). An optional variant, SEQ ID NO: 2, is acylated (Ac-) and has D-arginines.
# notes: also called 23RDG
# Columns and labels:
# [1] = molecular target: T1, silk fibroin, sericin-extracted, from degummed Bombyx mori silk, dissolved in 9.3 M LiBr and dialysed (Bombyx mori, UniProt P05790 22-5263; P21828 17-262, limits assumed); assay: reading of the HPLC ratios of the silk precipitates
# T1 construct: also called silk molecules
# Method: (§1) The amount of 23RGD bound to silk precipitates was quantified by analyzing lyophilized samples. The 23RGD was removed by incubating the samples for 4 hours in a dissolving buffer, then centrifuging on an Eppendorf 5415C (Eppendorf North America Inc., Westbury, N.Y.) at 16,000 g (RCF) for 30 minutes and the supernatant collected. This supernatant was then centrifuged in identical fashion and the final supernatant collected for HPLC analysis using a PerkinElmer Series 200 (PerkinElmer, Waltham, Mass.). The 23RGD peak areas from each curve were compared against a standard curve. 1-Way ANOVA was used to test for significant differences caused by changing silk concentration, 23RGD concentration, and accelerant volume. A Student's t-test was used to test the significance of differences resulting from altered ethanol concentrations.
# [2] = molecular target: T1, silk fibroin, sericin-extracted, from …; assay: HPLC of 23RGD extracted from lyophilised silk precipitate; formulation printed as RLO
# Method: as §1
# [3] = molecular target: T1, silk fibroin, sericin-extracted, from …; assay: HPLC of 23RGD extracted from lyophilised silk precipitate; formulation RHI
# Method: as §1
# [4] = molecular target: T1, silk fibroin, sericin-extracted, from …; assay: HPLC of 23RGD extracted from silk precipitate; formulation 0.6S 3R 10:1
# Method: as §1
# Precipitate samples generated at a calculated 10:1 23RGD:silk ratio consistently generated a “correct” molecular binding ratio. In the case of AVHI, this runs contrary to the trend of bound 23RGD concentrations being approximately double the projected values as indicated by AVLO and BASE (about 5:1 and about 9:1, respectively). This might be explained by saturation of the silk with 23RGD in the case of 10:1 23RGD precipitates. […]
# [5] = molecular target: T1, silk fibroin, sericin-extracted, from …; assay: HPLC of 23RGD extracted from lyophilised silk precipitate; formulation BASE
# Method: as §1
# [6] = molecular target: T1, silk fibroin, sericin-extracted, from …; assay: HPLC of 23RGD extracted from lyophilised silk precipitate; formulation AVLO
# Method: as §1
# [7] = molecular target: T1, silk fibroin, sericin-extracted, from …; assay: HPLC of 23RGD extracted from silk precipitate; formulation ECLO, against the calculated ratio
# Method: as §1
# (§2) Few of the silk precipitates entrained a molar ratio similar to what was initially calculated (FIG. 23). Four groups, SCVLO, AVHI, RHI, and RLO contained ratios similar to their calculated values of RGD per mole of silk. The six remaining groups contained ratios substantially greater than their calculated values. In the cases of AVLO, BASE, RMED, and SCLO, the RGD quantities were about 2-fold greater than expected. Although not wishing to be limited by theory, this greater observed molar ratio may be indicative of the formation of a RGD bi-layer. […]
# [8] = molecular target: T1, silk fibroin, sericin-extracted, from …; assay: HPLC of 23RGD extracted from lyophilised silk precipitate; formulation SCVLO
# Method: as §1
# [9] = molecular target: T1, silk fibroin, sericin-extracted, from …; assay: HPLC of 23RGD extracted from lyophilised silk precipitate; formulation SCLO
# Method: as §1
# [10] = molecular target: T1, silk fibroin, sericin-extracted, from …; assay: HPLC of 23RGD extracted from lyophilised silk precipitate; formulation AVHI
# Method: as §1
# [11] = molecular target: T1, silk fibroin, sericin-extracted, from …; assay: HPLC of 23RGD extracted from lyophilised silk precipitate; formulation printed as RMED
# Method: as §1
# [12] = molecular target: T1, silk fibroin, sericin-extracted, from …; assay: HPLC of 23RGD extracted from silk precipitate; formulation AVLO, against the calculated ratio
# Method: as §1, §2
# [13] = molecular target: T1, silk fibroin, sericin-extracted, from …; assay: HPLC of 23RGD extracted from the rinsed silk gel, against a standard curve
# Description: 23RGD-infused gels were studied to quantify the amount of 23RGD bound to the silk-hydrogel device as well as the quantity of free 23RGD which might be rinsed free of the device under relevant conditions. Briefly, samples of 23RGD-infused gel were cast and rinsed according to the methods above, with samples of rinse buffer being collected from each rinse for subsequent analysis by HPLC. Additionally, subsequent to the last rinse, the gel samples were mechanically pulverized by means of a stainless steel stirring rod and the adsorbed 23RGD removed by incubation for 4 hours in a dissolving buffer. This mixture of gel and solvent was then centrifuged on an Eppendorf 5415C at 16,000 g RCF for 30 minutes. The supernatant was collected and centrifuged another 30 minutes at 16,000 g RCF after which time the supernatant was collected in a sample vial for HPLC analysis. Samples of rinse buffer from the first and last rinse were centrifuged in the same fashion after being diluted with the same solvent the gel was extracted with in a volumetric ratio of 1 part rinse buffer to 4 parts solvent. To ensure 23RGD-hydrogel device rinse-exposed surface area was not a limiting factor, the same rinse and extraction process was performed upon devices pulverized after gelation and before rinsing. […]
binder,measurement,setting,value
B1,"apparent saturation, 23RGD:silk ratio",[1],~10 mol 23RGD per mol silk
same,23RGD:silk ratio bound,[2],1.1 mol 23RGD per mol silk
same,23RGD:silk ratio bound,[3],10.7 mol 23RGD per mol silk
same,23RGD:silk ratio bound,[4],~10 mol 23RGD per mol silk
same,23RGD:silk ratio bound,[5],8.7 mol 23RGD per mol silk
same,23RGD:silk ratio bound,[6],5.2 mol 23RGD per mol silk
same,fold of bound RGD over the calculated RGD:silk ratio,[7],~1.5 fold
same,23RGD:silk ratio bound,[8],11 mol 23RGD per mol silk
same,23RGD:silk ratio bound,[9],9.9 mol 23RGD per mol silk
same,23RGD:silk ratio bound,[10],10.5 mol 23RGD per mol silk
same,23RGD:silk ratio bound,[11],6.95 mol 23RGD per mol silk
same,fold of bound RGD over the calculated RGD:silk ratio,[12],~2 fold
same,23RGD:silk ratio bound,[13],3.35 mol 23RGD per mol silk
